Target: proMMP-9 (UniProt P14780)
Experiment: cell-based or functional assay

Chain of proMMP-9 (P14780 20-707 limits assumed): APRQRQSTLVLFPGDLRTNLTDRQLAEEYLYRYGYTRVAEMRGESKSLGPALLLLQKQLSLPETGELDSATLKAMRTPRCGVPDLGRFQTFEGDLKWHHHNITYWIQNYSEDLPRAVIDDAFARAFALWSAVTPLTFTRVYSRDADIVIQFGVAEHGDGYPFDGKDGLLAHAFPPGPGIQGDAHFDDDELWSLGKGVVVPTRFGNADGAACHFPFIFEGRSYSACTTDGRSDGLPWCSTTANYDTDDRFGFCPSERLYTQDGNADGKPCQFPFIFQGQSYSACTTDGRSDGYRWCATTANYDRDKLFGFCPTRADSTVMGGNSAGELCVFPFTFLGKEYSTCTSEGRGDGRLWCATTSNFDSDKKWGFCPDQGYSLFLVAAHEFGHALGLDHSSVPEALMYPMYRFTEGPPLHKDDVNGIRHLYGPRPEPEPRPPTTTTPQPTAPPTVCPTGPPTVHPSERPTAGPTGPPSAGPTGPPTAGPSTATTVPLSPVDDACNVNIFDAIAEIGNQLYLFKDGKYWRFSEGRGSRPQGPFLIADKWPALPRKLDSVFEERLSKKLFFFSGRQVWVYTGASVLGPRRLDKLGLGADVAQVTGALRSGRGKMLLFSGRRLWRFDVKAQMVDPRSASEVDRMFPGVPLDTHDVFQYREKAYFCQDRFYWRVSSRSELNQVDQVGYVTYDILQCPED

release of proMMP-9 from RCC-53 into the medium (gelatinase zymography); concentration from which a decrease was seen: 10 ng/mL
Substance: TIMP-1-GPI (from UniProt P01033 24-207; P19256 202-237)

Source: patent US20110105407A1
